Like-named read-outs stand apart in the source and are kept apart here.
Tests used:
Assay in all cases: SPR; Biacore 3000; GST, GST-CortoCD or GST-HP1CD covalently coupled to a CM5 chip; peptides injected at 1 or 10 µM (binding test) or in series from 1 to 10 µM (kinetics), 5 µL/min, 5 min; 10 mM Hepes pH7.4, 150 mM NaCl, 3 mM EDTA, 0.005% P20; 1:1 Langmuir fit
[1] = molecular target: GST-CortoCD (Corto chromodomain fused to GST) (D. melanogaster)
[2] = molecular target: GST-CortoCD (Corto chromodomain fused to GST) (D. melanogaster); remark: listed apart in the source
[3] = molecular target: GST-HP1CD (HP1 chromodomain fused to GST)

A Kd [1] of over 200 µM was found for RPL12 peptide dimethylated on lysine 3 in this work.
A Kd [2] of under 100 µM, a Kd [3] of over 200 µM and a Kd [1] of 8 µM were found for RPL12 peptide trimethylated on lysine 3 in this work.
A Kd [3] of over 200 µM and a Kd [1] of over 200 µM were found for “RPL12 peptide trimethylated on lysine 10” in this work.
A Kd [3] of over 200 µM and a Kd [1] of over 200 µM were found for RPL12 unmodified peptide in this work.
A Kd [3] of 0.4 µM was found for “histone H3 peptide trimethylated on lysine 9” in this work.
A Kd [3] of 0.7 µM was found for “histone H3 peptide trimethylated on lysine 27” in this work.

Reference: paper PMC3469418, “New Partners in Regulation of Gene Expression: The Enhancer of Trithorax and Polycomb Corto Interacts with Methylated Ribosomal Protein L12 Via Its Chromodomain” (PLoS Genetics, 2012)
